The results in this text go back to patent US20230322924A1 (Janssen / Centocor, published 2023).

The target of one assay is T1, Rh-integrin a4b7 (UniProt P13612 34-977; P26010 20-723, limits assumed).
T1 construct: rh read as recombinant human
Kind of assay: Biacore 8K SPR, antibody over immobilised protein. As to the method:
(§1) Non-specific binding of the lead molecule to unrelated surfaces is determined by biosensor technology (Biacore 8K). Antibody is passed over SPR surfaces coated with unrelated proteins. […] Irrelevant surfaces include negatively charged protein (Soy Trypsin Inhibitor), positively charged protein (Lysozyme and β-defensin), hydrophobic (Rh-integrin a4b7), human IgG, sticky protein (Rh-CD19). Proper controls are used in this experiment. Lead is flown over two surfaces, one is a blank and the other has a molecule directly immobilized. The response unit (RU) level is determined by subtracting the blank RU from the test surface RU. […] A response unit ≥100 predicts high risks for non-specific binding to charged/hydrophobic/IgG surfaces which would create challenges during manufacturing and translate to poor PK properties.
For orientation: SPR reads the build-up and loss of mass on a sensor chip optically.

Another assay concerns the target T2, Rh-CD19 (UniProt P15391 20-291, limits assumed).
T2 construct: rh read as recombinant human
T2 sequence (looked up): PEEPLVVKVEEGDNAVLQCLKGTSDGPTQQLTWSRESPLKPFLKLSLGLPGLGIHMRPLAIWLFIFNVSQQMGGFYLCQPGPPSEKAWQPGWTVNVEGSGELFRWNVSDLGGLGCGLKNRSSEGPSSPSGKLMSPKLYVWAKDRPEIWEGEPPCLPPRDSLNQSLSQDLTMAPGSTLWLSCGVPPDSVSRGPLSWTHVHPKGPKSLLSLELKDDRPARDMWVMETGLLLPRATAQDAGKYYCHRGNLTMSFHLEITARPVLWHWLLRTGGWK
Kind of assay: Biacore 8K SPR, antibody over immobilised protein. As to the method:
as §1

Assay [1] concerns the target T3, human PSMA on cells (LNCaP) (human, UniProt Q04609 1-750).
T3 construct: whole, on cells; also called LNCaP cells
The experiment in a line: flow cytometry, mammalian Fab supernatant on LNCaP cells, anti-human kappa-RPE. Here is the method: Individual Fab clones were isolated from the round 3 output of all panning experiments following pIX excision. Fab clones were tested for binding to chimp and cyno PSMA expressing HEK cells, as well as to human PSMA on LNCaP cells. Briefly, PSMA expressing cells were aliquoted into a V-bottom plate (CoStar 3357) at a density of 200,000 per well and incubated with (100 μl) supernatants expressing Fab fragments for 1 hour on ice. Cells were washed twice with PBS containing 2% FBS, and stained with a mouse anti-human kappa-RPE antibody (Life Technologies cat #MH10514) for 1 hour on ice. Cells were washed twice with PBS containing 2% FBS and resuspended in […] of the same wash buffer. Plates were read on a BD FACS Array flow cytometer. FACS data was analyzed in FlowJo software by live gating the healthy population of cells using forward scatter and side scatter, and then analyzing the cells within this gate for PE staining. Mean fluorescence intensity (MFI) was calculated and exported into Microsoft Excel. […] Fabs were sequenced and moved forward for cloning into mammalian expression vector for rescreening. True positives were selected from the binding of mammalian cell expressed Fab supernatants to PSMA-expressing cell lines.
FIGS. 22A, 22B, 22C and 22D show the titration curves for anti-PSMA panning hits vs. LNCaP cells. […] Binding profiles among hits were compared across cell lines expressing different species of PSMA.

Another assay has as its target Human CD33 full length (human, UniProt P20138 18-364). Kind of assay: cell-based or functional assay.
The target of another assay is T4, Human CD33 ECD-HSA (human).
T4 construct: CD33 ECD fused at the C-terminus to monomeric HSA (C58S) and a six-histidine tag; also called C33W2; huCD33 ECD-HSA
Kind of assay: SPRi off-rate screen (IBIS MX96).

For assay [2], the target named is T5, TMEW1 (TMEFF2-FL-ECD-His-Avitag) (human, UniProt Q9UIK5 41-320).
T5 construct: Human TMEFF2 ECD with C-terminal G3S, 6xHis tag and Avi-tag, all in the entry; also called TMEFF2 ECD
T5 sequence: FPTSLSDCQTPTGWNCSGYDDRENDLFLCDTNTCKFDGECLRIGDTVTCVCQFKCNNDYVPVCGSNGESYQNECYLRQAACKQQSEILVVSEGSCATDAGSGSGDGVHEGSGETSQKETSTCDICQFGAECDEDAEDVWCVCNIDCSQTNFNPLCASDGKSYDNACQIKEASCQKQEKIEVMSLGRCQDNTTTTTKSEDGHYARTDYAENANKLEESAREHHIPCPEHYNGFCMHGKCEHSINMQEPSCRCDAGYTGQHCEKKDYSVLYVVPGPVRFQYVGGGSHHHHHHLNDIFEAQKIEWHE
Kind of assay: Biacore 8K SPR, mAb captured on anti-human Fc, single cycle kinetics. Here is the method:
The binding of anti-TMEFF2 mAbs to human TMEFF2 ECD was measured by Biacore 8K SPR. The format of the assay was to capture the mAbs using a high density anti-human Fc surface, then inject human TMEFF2 concentration titration using a single cycle kinetics method. […] The mAbs were captured on the anti-human Fc IgG surface at 0.5 μg/ml (˜200-300 RU) on flow cell 2. The running buffer was then changed to HBSP+100 ug/ml BSA. TMEFF2 ECD at 30 nM concentration in 3-fold dilution series was injected from low to high concentration using single cycle kinetics method. The off-rate was monitored 30 minutes after the last or highest concentration injection and then the surface was regenerated using 0.8% phosphoric acid (Bio-Rad). A buffer blank run, capturing the same mAbs and using the same conditions of sample run was also completed. The raw data were processed by subtracting two sets of reference data from the response data: 1) reference flow cell 1 subtracted from sample flow cell 2 and 2) buffer blank run from experimental run. The processed data at all concentrations for each mAb were globally fit to a 1:1 simple Langmuir binding model to extract estimates of the kinetic (kon, koff) and affinity (KD) constants.

Human CD33 full length, sequence (P20138 18-364 limits assumed): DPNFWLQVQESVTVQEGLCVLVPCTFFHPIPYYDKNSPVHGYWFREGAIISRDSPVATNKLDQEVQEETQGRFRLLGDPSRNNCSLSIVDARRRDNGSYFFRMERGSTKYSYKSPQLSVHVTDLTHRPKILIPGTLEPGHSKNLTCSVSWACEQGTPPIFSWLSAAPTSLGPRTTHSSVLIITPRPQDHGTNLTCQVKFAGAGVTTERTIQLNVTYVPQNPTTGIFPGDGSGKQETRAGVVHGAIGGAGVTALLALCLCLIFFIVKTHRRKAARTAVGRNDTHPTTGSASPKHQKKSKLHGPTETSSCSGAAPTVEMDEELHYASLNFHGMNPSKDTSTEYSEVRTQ
T3 sequence (Q04609 whole entry): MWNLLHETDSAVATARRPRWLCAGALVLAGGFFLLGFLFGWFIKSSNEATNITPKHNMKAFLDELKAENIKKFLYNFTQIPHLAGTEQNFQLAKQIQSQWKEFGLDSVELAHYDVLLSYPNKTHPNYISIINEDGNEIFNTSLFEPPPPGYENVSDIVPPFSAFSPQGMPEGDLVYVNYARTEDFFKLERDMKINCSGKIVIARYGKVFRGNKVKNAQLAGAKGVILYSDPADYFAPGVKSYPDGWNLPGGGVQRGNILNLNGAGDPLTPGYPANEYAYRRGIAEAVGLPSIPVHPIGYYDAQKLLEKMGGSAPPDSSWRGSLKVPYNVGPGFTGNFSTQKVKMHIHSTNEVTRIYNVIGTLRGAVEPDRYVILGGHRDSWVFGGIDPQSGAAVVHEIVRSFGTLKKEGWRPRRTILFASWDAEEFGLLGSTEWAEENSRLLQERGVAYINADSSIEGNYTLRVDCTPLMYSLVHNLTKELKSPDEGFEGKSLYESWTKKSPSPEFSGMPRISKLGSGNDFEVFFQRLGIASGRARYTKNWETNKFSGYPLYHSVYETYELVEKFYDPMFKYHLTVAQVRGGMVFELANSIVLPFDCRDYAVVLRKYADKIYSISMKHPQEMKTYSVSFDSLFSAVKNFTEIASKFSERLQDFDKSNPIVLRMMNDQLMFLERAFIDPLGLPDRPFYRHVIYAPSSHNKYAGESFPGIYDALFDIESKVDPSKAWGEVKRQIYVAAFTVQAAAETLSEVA

B1: TMCB150 (bispecific antibody, human IgG4 S228P, kappa, lambda, F234A L235A)
heavy 1: not shown
light 1: not shown
heavy 2: QVQLQQSGPRLVRPSQTLSLTCAISGDSVFNNNAAWSWIRQSPSRGLEWLGRTYYRSKWLYDYAVSVKSRITVNPDTSRNQFTLQLNSVTPEDTALYYCARGYSSSFDYWGQGTLVTVSSASTKGPSVFPLAPCSRSTSESTAALGCLVKDYFPEPVTVSWNSGALTSGVHTFPAVLQSSGLYSLSSVVTVPSSSLGTKTYTCNVDHKPSNTKVDKRVESKYGPPCPPCPAPEAAGGPSVFLFPPKPKDTLMISRTPEVTCVVVDVSQEDPEVQFNWYVDGVEVHNAKTKPREEQFNSTYRVVSVLTVLHQDWLNGKEYKCKVSNKGLPSSIEKTISKAKGQPREPQVYTLPPSQEEMTKNQVSLTCLVKGFYPSDIAVEWESNGQPENNYKTTPPVLDSDGSFLLYSKLTVDKSRWQEGNVFSCSVMHEALHNHYTQKSLSLSLGK
light 2: QSALTQPASVSGSPGQSITISCTGTSSNIGTYKFVSWYQQHPDKAPKVLLYEVSKRPSGVSSRFSGSKSGNTASLTISGLQAEDQADYHCVSYAGSGTLLFGGGTKLTVLGQPKAAPSVTLFPPSSEELQANKATLVCLISDFYPGAVTVAWKADSSPVKAGVETTTPSKQSNNKYAASSYLSLTPEQWKSHRSYSCQVTHEGSTVEKTVAPTECS
notes: IgG4 PAA; also called TMEB762×CD3B376
With B1, the binding result with Rh-integrin a4b7 and in the assay with Rh-CD19 was “no binding (tested: response unit ≥100 predicts high risks)” throughout.

B2: PSMM81 (Fab, V domains shown)
VH: QVQLVQSGAEVKKPGSSVKVSCKASGGTFDDYAISWVRQAPGQGLEWMGRIDPIEGTANYAQKFQGRVTITADESTSTAYMELSSLRSEDTAVYYCARDRYYYDGVYWYSDYFDYWGQGTLVTVS
VL: not shown
notes: Mammalian Fab supernatant; also called PSMB80
For orientation: EC50 (read off the curve) means the concentration that produces a half-maximal response. Take B2: in assay [1], the “EC50 (read off the curve)” value was approximately 0.08 µg/mL.

B3: C3CB103 (bispecific antibody, IgG4, V domains shown)
VH 1: QVQLVESGGGVVQPGRSLRLSCVASGFTFSSYGMHWVRQAPGKGLEWVAVISYDGSNKYYADSVKGRFTISRDNSKNTLYLQMNSLRAEGTAVYYCAKDFRSFDWLPPDSASYHGMDVWGQGTTVTVSS
VL 1: SYELTQPPSVSVSPGQTASITCSGDKLGDKYACWYQQKPGQSPVLVIYQDGKRPSGIPERFSGSNFGNKATLTISGTQAMDEADYYCQAWDRNTVVFGGGTKLTVL
VH 2: QVQLQQSGPRLVRPSQTLSLTCAISGDSVFNNNAAWSWIRQSPSRGLEWLGRTYYRSKWLYDYAVSVKSRITVNPDTSRNQFTLQLNSVTPEDTALYYCARGYSSSFDYWGQGTLVTVSS
VL 2: QSALTQPASVSGSPGQSITISCTGTSSNIGTYKFVSWYQQHPDKAPKVLLYEVSKRPSGVSSRFSGSKSGNTASLTISGLQAEDQADYHCVSYAGSGTLLFGGGTKLTVL
As to B3, the “Primary AML Cell Killing EC50” value with Human CD33 full length was 4.19 nM.

B4: C3CB102 (bispecific antibody, IgG4, V domains shown)
VH 1: not shown
VL 1: SYELTQPPSVSVSPGQTASITCSGNKLGAKFASWYQQKPGQSPVLVIYQDNKRPSGIPERFSGSNSGNTATLTISGTQAVDEADYYCQAWDSSTVVFGGGTKLTVL
VH 2: QVQLQQSGPRLVRPSQTLSLTCAISGDSVFNNNAAWSWIRQSPSRGLEWLGRTYYRSKWLYDYAVSVKSRITVNPDTSRNQFTLQLNSVTPEDTALYYCARGYSSSFDYWGQGTLVTVSS
VL 2: QSALTQPASVSGSPGQSITISCTGTSSNIGTYKFVSWYQQHPDKAPKVLLYEVSKRPSGVSSRFSGSKSGNTASLTISGLQAEDQADYHCVSYAGSGTLLFGGGTKLTVL
Turning to B4, the “Primary AML Cell Killing EC50” value with Human CD33 full length is 4.97 nM.

B5: C33B782 (antibody, IgG4, V domains shown)
VH: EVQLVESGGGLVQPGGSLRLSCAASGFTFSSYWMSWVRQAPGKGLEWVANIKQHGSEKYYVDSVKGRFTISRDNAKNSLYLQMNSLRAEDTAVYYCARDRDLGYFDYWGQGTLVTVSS
VL: SYELTQPPSVSVSPGQTASITCSGNKLGAKFASWYQQKPGQSPVLVIYQDNKRPSGIPERFSGSNSGNTATLTISGTQAVDEADYYCQAWDSSTVVFGGGTKLTVL
notes: also called C33H72/C33L40; C33F82
As a reminder, the koff is the first-order rate constant of dissociation. B5: in the assay with Human CD33 ECD-HSA, the koff is 0.000258 s⁻¹.

B6: C3CB97 (bispecific antibody, IgG4, V domains shown)
VH 1: QVQLVQSGSELRKPGASVKVSCKASGYTFTNYAMNWVRQAPGQGLEWMGWINTNTGNPTYAQGFTGRFVFSLDTSVSSAYLQISSLKAEDTAMYYCATDRDRGTDYWGQGTLVTVSS
VL 1: QSALTQPASVSGSPGQSITISCTGTSSDVGDYNYVSWYQQHPGKVPKLMIYDVSNRPSGVSNRFSGSMSGNTASLTISGLQAEDEADYYCSSYSSSSALEVFGGGTKLTVL
VH 2: QVQLQQSGPRLVRPSQTLSLTCAISGDSVFNNNAAWSWIRQSPSRGLEWLGRTYYRSKWLYDYAVSVKSRITVNPDTSRNQFTLQLNSVTPEDTALYYCARGYSSSFDYWGQGTLVTVSS
VL 2: QSALTQPASVSGSPGQSITISCTGTSSNIGTYKFVSWYQQHPDKAPKVLLYEVSKRPSGVSSRFSGSKSGNTASLTISGLQAEDQADYHCVSYAGSGTLLFGGGTKLTVL
With B6, in the assay with Human CD33 full length, the “Primary AML Cell Killing EC50” value is approximately 0.232 nM.

B7: C33B792 (antibody, IgG4, V domains shown)
VH: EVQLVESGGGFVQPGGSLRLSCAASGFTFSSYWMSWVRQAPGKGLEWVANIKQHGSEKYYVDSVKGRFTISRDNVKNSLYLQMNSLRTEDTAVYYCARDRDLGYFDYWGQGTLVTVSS
VL: SYELTQPPSVSVSPGQTASITCSGDKLGNKYASWYQQKPGQSPVLVIYQDTKRPSGIPERVSGSNSGNTATLTISGTQAMDEADYHCQAWDSSTVVFGGGTKLTVL
notes: also called C33H87/C33L35; C33F92
Take B7: in the assay with Human CD33 ECD-HSA, the koff was 0.000427 s⁻¹.

B8: TMEB757 (antibody, human IgG4 S228P, kappa, F234A L235A, V domains shown)
VH: EVQLLESGGGLVQPGGSLRLSCAASGFTFSSYSMSWVRQAPGKGLEWVSVISGSGGFTDYADSVKGRFTISRDNSKNTLYLHMNSLRAEDTAVYYCARMPLNSPHDYWGQGTLVTVSS
VL: AIQMTQSPSSLSASVGDRVTITCRASQGIRNDLGWYQQKPGKAPKLLIYAASSLQSGVPSRFSGSGSGTDFTLTISSLQPEDFATYYCLQDYNYPLTFGGGTKVEIKR
notes: IgG4 PAA anti-TMEFF2; re-engineered variant of TMEB675; also called TMEH460/B76L85; TMEFB757
As a reminder, the Kd is the free concentration of one partner at which half of the binding sites on the other are occupied at equilibrium, for simple one-to-one binding. As a reminder, the kon is a measure of how fast the partners come together. A higher kon goes with faster complex formation. In assay [2], B8 displayed a dissociation constant Kd of 0.31 nM, an off-rate (koff) of 0.000167 s⁻¹ and an on-rate constant (kon) of 542000 M⁻¹ s⁻¹.

B9: TMEB762 (antibody, human IgG4 S228P, kappa, F234A L235A, V domains shown)
VH: EVQLLESGGGLVQPGGSLRLSCAASGFTFSSYSMSWVRQAPGKGLEWVSVISGSGGFTDYADSVKGRFTISRDNSKNTLYLQMNSLRAEDTAVYYCARMPLNSPHDYWGQGTLVTVSS
VL: DIQMTQSPSSLSASVGDRVTITCRASQGIRNDLGWYQQKPGKAPKLLIYAASSLQSGVPSRFSGSGSGTDFTLTISSLQPEDFATYYCLQDYNYPLTFGGGTKVEIKR
notes: IgG4 PAA; also called TMEH459/DL3L129
Consider B9, for which the binding result in the assay with Rh-integrin a4b7 and in the assay with Rh-CD19 was “no binding (tested: response unit ≥100 predicts high risks)” each time.
